Source: patent US5831003A, “Peptides which bind to prothrombin and thrombin” (Bayer Corporation, priority 1996, dated 1998)
Where “and” joins values, the source holds several entries; their conditions need not be identical. Equal values may be shown once. Ends that are not written are not given here.

Key:
prothrombin = molecular target: T1, prothrombin (Homo sapiens, UniProt P00734); assay: Purification of prothrombin from PTC eluate on QLWGSH-A-Totda-Toyopearl; type: binding; settings: SDS-PAGE and western blot; released with 1 M NaCl
T1 construct: from tissue
Description: Human pooled plasma was processed to PTC eluate by standard manufacturing procedures as indicated in Example 1. Approximately 1.0 ml of PTC eluate was injected onto the peptide resin QLWGSH-A-Totda-Toyopearl (FIG. 2 B). The column was washed with equilibration buffer containing 1.0 M NaCl and then containing 3.0 M NaCl. Acid treatment (2.5% acetic acid) was used to release protein from peptide resin.

α-thrombin = molecular target: T2, α-thrombin (Homo sapiens, UniProt P00734); assay: Confirmatory binding assay in column chromatographic format, peptides synthesized on A-Totda-Toyopearl; settings: for Absorbance, 280 nm 2% Acetic Acid: integration of A280
T2 construct: α-Thrombin is the active form of the plasma serine protease zymogen, prothrombin; purchased Enzyme Research Labs (South Bend, Ind.)
Description: Confirmatory binding assays were performed in a column chromatographic format on a microbore HPLC using individual peptide sequences synthesized directly onto the Toyopearl 650 M Chelate resin which had been modified with Totda followed by an alanine residue (A-Totda-Toyopearl), at a final substitution density of 0.2 mmol/g resin. […] The endpoint was a dose-dependent increase in the acid eluate in the thrombin contactings, and quantification was by integration of the absorbance at 280 nm.

thrombin = molecular target: T3, thrombin (Homo sapiens, UniProt P00734); assay: Purification of α-thrombin from activated PTC eluate on QLWGSH-A-Totda-Toyopearl; type: binding; settings: SDS-PAGE and western blot
T3 construct: from tissue
Description: Human pooled plasma was processed to PTC eluate by standard manufacturing techniques. In brief, DEAE-Sephadex resin was added to post cryoprecipitate eluant and loosely bound protein was washed away with a low salt buffer. Higher concentrations of NaCl eluted the fraction called PTC eluate which contains prothrombin and the vitamin K-dependent coagulation protease zymogens (factors VII, IX, X, protein C and protein S). A sample of PTC eluate was activated in the presence of 25% (w/w) sodium citrate for 4 days at room temperature. Approximately 1.0 ml of activated PTC eluate was injected onto the peptide resin QLWGSH-A-Totda-Toyopearl (FIG. 2 A). The column was washed with equilibration buffer (10 mM HEPES, pH 6.8, 1.0 mM EGTA and 0.1% v/v Tween-20) containing 1.0 M NaCl and then washed further with equilibration buffer containing 3.0 M NaCl. Acid treatment (2.5% acetic acid) was used to release protein from the peptide resin.

- binding of prothrombin from unactivated PTC eluate (in words) (prothrombin): prothrombin bound the peptide
- Absorbance, 280 nm 2% Acetic Acid (α-thrombin; 50 μg α-thrombin applied): 1.54 and 1.39
- Absorbance, 280 nm 2% Acetic Acid (α-thrombin; 100 μg α-thrombin applied): 3.23 and 2.09
- Absorbance, 280 nm 2% Acetic Acid (α-thrombin; 200 μg α-thrombin applied): 6.92 and 3.71
- dose dependence of thrombin in the acid eluant (in words) (α-thrombin; 50, 100 and 200 μg α-thrombin): dose dependent increase
- binding of thrombin to peptide resin (in words) (α-thrombin; summary of Table 2): bound thrombin
- binding and enrichment of thrombin from activated PTC eluate (in words) (thrombin): bound and enriched thrombin
Substance: QLWGSH (not fully specified (C-terminus))
